Source: article PMC3232311 (Biochemistry, 2011)

Biological target: the molecule itself
Experiment: SEC

B1: Mycobacterium smegmatis mycothiol S-transferase (MSMEG_0887), native enzyme (enzyme, UniProt A0QQV2 1-185, looked up)
chain: MTAREPTTKTSTGSVNESAAVRELLRDAFTRLIEHVDDLTDGLTEEVSSYRPTPEANSIAWLLWHSARCQDMQLCDIAGVEQVWTRDGWIDRFDLGLPPDDIGYGHSPEEVAKVQAPAELLAGYYHAVHKVTLEYIATVTPGEMDRVVDTNWNPPVTASARLISIIDDCAQHLGQAAYLRGIIPR
stoichiometry N: 2
